Experimental data from the DeepSol protein solubility set.

Test: soluble on expression in E. coli; label from the status in PepcDB or PDB records

| Sequence | soluble on expression in E. coli |
| --- | --- |
| MGSDKIHHHHHHMSQRENPQNSSQDVADLLGGAFAGHTMQRLRTPDGKYRYSYVSSGVQASFGLDPEALMQLQDVDHSWLHPADRSLFIAALEQSAAALTRLDEEVRVSLDDGTFKWVRSIGNPRRMRDGTVIWDGVALDVTDRHEASEALERTLTQVRQNETSEGRFSYIAASDVLDRLSSLRAAVEQLDLSVPTAAHVHAVFQKFERGLFAARDLLDDTALDETRPTDHEPHKDISATLTPRQQDILGHVSRGATNRDIARAMDISEGTVKLHISAILKRTGAQNRTEAALAWTSSNGTPRR | not soluble |
| KLFEHTVLYDSGDAFFELKGNASMKLSPKAAIEVCNEAAKKGLWILGIDGGHWLNPGFRIDSSASWTYDMPEEYKSKIPENNRLAIENIKDDIENGYTAFIITLKM | soluble |
| MGSDKIHHHHHHMLGKTAGGLYWLFRYLERSENTARLIETGFRIALTRPDGSDDEWRSVLQTAAVRDLYEGLYGEVEQAKAIDFLLRDRANPSSILSSISEARQNARLTRTALTREVWEAINDAYMNLKELLAHPVSAKTLPGTLATIRQHSALVRGAMHGTMLRTDIFDFCRLGTFIERADNTARILDVKYYVLLPSMTQVGSDLDNVQWETILRAVASHRSYRWLMGGETTPKGIADFLVFDTRMPRSLRFTVKKMASNLEYLAENYGQRHACHDQMDVLLARLKHGTIDEVFDDGLHEFLTEFLLDIGALGAQIESDYRFLG | not soluble |
| MKTLIEIKQTPDGIIKADKVFNKVKDKISLPNRILYLGCGSSHFLSKLLAMVTNMHGGLGIALPCSEFLYSKETYPIGEVELAVGISRSGETTEILLALEKINVKKLGITTRESSLTRMCDYSLVVPAIEESVVMTHSFTSFYFAYLQLLRYSYGLPPLNAGEISKATEKSLEYERYIREIVESFDFQNIIFLGSGLLYPVALEASLKMKEMSIFWSEAYPTFEVRHGFKAIADEKTLVVLMVEEPFEWHEKLVKEFKNQGAKVLVISNSPQDLGQDYSIELPRLSKDANPIPYLPIVQLLSYYKAVSRGLNPDNPRFLDKVVRW | soluble |
| MFLEKDMQKNTLWFNGLSMDDVDKVGGKNASLGEMVSNLANVGVSVPNGFATTSYAFNQFLDHEGLDERIHQLLDELDVDDVEALRKTGATIRQWVLQAPFPADLEQEIRNNYEELIEGNTELSVAVRSSATAEDLPDASFAGQQETFLNVKGIDAVLEATKHVYASLFNDRAISYRVHQGFDHRGISLSAGIQRMVRSDKASSGVMFTLDTESGFDQVVFITSSWGLGEMVVQGAVNPDEFYVHKPMLEAGEHPIVKKTFGSKLIKMIYSNNQEIGKQVDIIDTSEEERNTFSLNEEEIKELAKQAMIIEKHYQRPMDIEWAKDGIDGKLYIVQARPETVCSQTEQNVIERYELNNKADVLVEG | not soluble |
| MRGSHHHHHHGAGDRGPEFPEESSPRRTPQSIPYQDLPHLVNADGQYLFCRYWKPTGTPKALIFVSHGAGEHSGRYEELARMLMGLDLLVFAHDHVGHGQSEGERMVVSDFHVFVRDVLQHVDSMQKDYPGLPVFLLGHSMGGAIAILTAAERPGHFAGMVLISPLVLANPESATTFKVLAAKVLNLVLPNLSLGPIDSSVLSRNKTEVDIYNSDPLICRAGLKVCFGIQLLNAVSRVERALPKLTVPFLLLQGSADRLCDSKGAYLLMELAKSQDKTLKIYEGAYHVLHKELPEVTNSVFHEINMWVSQRTATAGTASPPLEVDLQGDHGLSAWSHPQFEK | soluble |
| MKRTIFLLMSILLLLTACGDGHKQTSSDKEQSEHKDNHNKNQVKQIATDKKVQGDNYRTILPFKESQARGLLQDNMANGYNGEDFESGLLELSKEIFPTNKYLYQDGQYLDKKTINAYLDPKYTKKEIDKMSEKEKKSKNANENLGLNPSHNGETDEEKIAKNSPAYLSNILEQDFYGNSDSKGKNIKGMTIGLAMNSVYYYKKEKDGETFSKDLSDKEIEKQGKQMASEMLSRLRENSDLKDIPIHFAIYKQSSQDSITPGEFIVGTTVEEGKTKINSWDNINEKAALIPSSTAADYDETLNNNFKQFNDNLQSYFSNFTQAVGKVKFVNKKAKQLTVDLPIDYYGQAETIGITQYVTEQAEKYFDKLDEYEIRIKDGNTPRALISKTKDDKEPQVHIYHN | not soluble |
| MGSDKIHHHHHHMRIDVDAFKVLEVLVEEGSFAKAAERLHKAQSAVSYQIKKLEQHLGVSLLSREQYRAELTAEGRVILAEGQRLLSHLANIEHLASRFSEGWEPKLELVIDGALPMEPIMTALKRMAEHQIPTKIQLNMEFLGGVQHRFERDNADLMLVKDYRTGPYYYAKPLPAITSVLLAAPHHPLAGRKALTLTELQQHVELTIEDSSPVKTYRDELQFGGDKVFYLSGFIMKKNALLKGLGFGWMPDFLVRDELKAGLLTEIDFVGGSRYTFVPQLVSTLERPLGRAGRLFTELILEEFAKEPMGIPEGLG | not soluble |
| MSSTLPVINLMGPTASGKTALACELYERGHFELISVDSALIYKDMDIGTAKPTKEELALYPHHLIDIITPLEVYSAAQFVEDATQLIDQIHMKGKTPILVGGTMLYFKSLLEGLSTNLPSADAEVRAAIEKQAEQEGWQSVYDELARVDPVAGARFKVSDRQRIIRAIEVYRLTGQPITKLQAEQPKNVPYRYTFHNYALLPDRIELHKRIEQRLFKMWSIGFLNEVESLIKKYDLNDNLPSMRSVGYRQALDFLLKSDMSHNNRREMEDKALFATRQLAKRQYTWLRSLQETHYFKTYLTIKQAQEDLRNSYGLEHHHHHH | soluble |
| MLTPISIEKEHIRLINLLHFINEQNRWFTIKELSDYLQVADKTVRKYLKLLEDEIPPSWNLLVQKGKGIYLKKPLNESLSFVESKILRKSLNLQICEELVFKKNSMQSLAQKLHLQVGALYPIINQINYDIQSSHLNIKKKPLEISGREQDVRVFMLRLYCNIPNDYWPFPYINKQNITDLINKMEKILNVQMYTYSKHKLCVLFAITISRLLSGNTIDNVSGLILVNKNDDHYKTVASITSELQNSFGVTLHETEISFLALALLLSLGNSITTDSNKTLTSYKKTIMPLAKEITKGIEHKLQLGINYDESFLTYVVLIIKKALDKNFIQYYNYNIKFIRHIKQRHPNTFNTIQECISNLNYTVYSHFDCYEISLLTMHFETQRMLFKNNPKKIYVYTSQGCIHREYISALLEKRYNGLIKIVRNTIINLTNESLQDMEIDIIISNVNLPIKNIPIVQISEFPTERDFHEIKKII | not soluble |
| GPGSMDLLGSQIAAALEEGSRKRKRDVEEGCSALVSHVNSTLDVITTDVRNTLTEQHCEMEERVNRLMKMAGDFATAVDTWQKKASDSVCAVESQQQLLWELLQDVEKRAQERKKEMLKRQEQRMEELRTMLLERIQKAEASMQL | not soluble |
| MGSDKIHHHHHHMRILVTNDDGIQSKGIIVLAELLSEEHEVFVVAPDKERSATGHSITIHVPLWMKKVFISERVVAYSTTGTPADCVKLAYNVVMDKRVDLIVSGVNRGPNMGMDILHSGTVSGAMEGAMMNIPSIAISSANYESPDFEGAARFLIDFLKEFDFSLLDPFTMLNINVPAGEIKGWRFTRQSRRRWNDYFEERVSPFGEKYYWMMGEVIEDDDRDDVDYKAVREGYVSITPIHPFLTNEQCLKKLREVYD | not soluble |
| DLKYILETKLEEERNHLEELLEKVEEDYEGINYDEVLEALKLFKDNYELPKSKIKRKIRIFLIKENILFLNPQKGTLKPQSYLVWNAIKRML | soluble |
| MGGSHHHHHHGMASALASYFDEHDCEPSDPEQETRTNMLLELARSLFNRMDFEDLGLVVDWDHHLPPPAAKTVVENLPRTVIRGSQAELKCPVCLLEFEEEETAIEMPCHHLFHSSCILPWLSKTNSCPLCRYELPTDDDTYEEHRRDKARKQQQQHRLENLHGAMYT | not soluble |
| MSLAVGKYTQLISDLLQSVSIVDALPRGAAQAGILCQDTKEVLESENTVLEIAIPRQDNLVIVGDIHGQFADMLSNVLSIQLNLNNTKATDGRGSPSTEIYKFLFLGDYVDRGPQSLEVITLLFALKVEYPEHIFLLRGNHEEAQTSRLYGFFQECKSKLEGTGDRGPASVDITSSTWLQYNTVFCWLPLAAVVACPSGMFFCTHGGLSPHTLSVPLLRSLRRNEYGMVDDFEDTFYTPTSRGGDDMLEGPGAKARLVIDGLLWSDPEDQVSGCQMNNRGCGFIFGPDVTRSFLDRNYSYGFPPSKRQLIGEMKPGMQFILRGHQCAREGYMWCHGGLVLTLFSAPNYCGMHGNKGAVALLRGQVQAGKDRVELEFNVYDTVVRGGSDNLVACLSPFAFAHYFSGDSEGHHHHHH | not soluble |
| EDLDCTPGFQQKVFHINQPAEFIEDQSILNLTFSDCKGNDKLRYEVSSPYFKVNSDGGLVALRNITAVGKTLFVHARTPHAEDMAELVIVGGKDIQGSLQDIFKFARTSPVPRQKRSIVVSPILIPENQRQPFPRDVGKVVDSDRPERSKFRLTGKGVDQEPKGIFRINENTGSVSMTRTLDREVIAVYQLFVETTDVNGKTLEGPVPLEVIVIDQNDNRPIFREGPYIGHVMEGSPTGTTVMRMTAFDADDPATDNALLRYNIRRQTPDKPSPNMFYIDPEKGDIVTVVSPALLDRETLENPKYELIIEAQDMAGLDVGLTGTATATIMIDDKNDHSPKFTKKEFQATVEEGAVGVIVNLTVEDKDDPATGAWRAAYTIINGNPGQSFEIHTNPQTNEGMLSVVKPLDYEISAFHTLLIKVENEDPLVPDVSYGPSSTATVHITVLDVNEGPVFYPDPMMVTRQEDLSVGSVLLTVNATDPDSLQHQTIRYSVYKDPAGWLNINPINGTVDTTAVLDRESTFVDNSVYTALFLAIDSGNPPATGTGTLLITLEDVNDNAPFIYPTVAEVCDDAKNLSVVILGASDKDLHPNTDPFKFEIHKQAVPDKVWKISKINNTHALVSLLQNLNKANYNLPIMVTDSGKPPMTNITDLRVQVCSCRNSKVDCNAAGALRFSLPSVLLLSLFSLACL | soluble |
| SPAAVASALEGCREPVPGIRCRDAFSAASGIIDKMACVPELAVSEISAPRIVSSLAGDGHALFVANSMPARDMDLYAAPVAQKPLQVALNRGVSGIDGIISTAAGFSAGLGKPTTLLIGDISFLHDLNALCLLNHPWNPLIVIVLNNHGGSIFSFLPIASQTDRLDECFATPQNFSIESAARTFGIDYACPETNGDFTQLYAEALTTKKSLIIEIRSDREKNLLLHRSLKARLDPVFEKADC | not soluble |
| MSLQPSKRYEIGISQTIGKNDRMQDTANVLGELFPNIDIIGIFDGHNGEEAARYCLISMKNEFNCLNPKDCEHQLPQIFESIHNNISSQTISGTTASICIIRSDDVVLAHVGDSPIYFYENGGKVINIKGVDRVNGQINLSRSLGDKLLQPPLTYKPDISIHSLSMKYIVIVTDGVTDSLSDSEMEIILSQPLSPDQIAATIRNNAFINGSVDNISVIVIQIIEGHHHHHH | soluble |
| MGSDKIHHHHHHMTLALGRLDSITLLLPDPELFLYSYVRREAVLSSQIEGTQSTLTQLMLFELEESPGVPFDDVVEVSNYVAALDHGVARLKEGFPLSNRLIREMHTVLLFRGRGSNKGPGEFRRSQNWIGGTRPGNALFVPPPPHLVPQCMADLERFLHDENNPYPSVLKAALAHVQFETIHPFLDGNGRIGRLLIAFILHHDGILSRPLLYLSLYFKRHRETYYRLLDRVRTEGDWEAWTDFFLEGVRETAGNAVDTARRLIALFEADQQKIQSLGRSASSTLQVFQAFKERPLLTVGRISERTGLSFPAANQAVGRMEKKLGIVREITGRRRERAYAYDQYVAILNEGAEE | not soluble |
| MSLELLIPQLEFLNEEGAQAEVWALSRIFLDTLVKETGQKVKAIFPDAGAAALLKYQWTDAEFKCASLSDRKPVDVEDEVVVMIIPDHQMVESVERIASQLSDDPIRPLVMWNPRLVSGDVGVGFNVRNLRRNFLSTFTTVYSMRPLPTGAVFRQYPGKWKVFYDDPKRPNRYLLARELVSRPDATDIEIIFGGGDEQSDEAPSLMNNVMGVFSSVSRFMRVISKEGHHHHHH | not soluble |
| LNNRKQMAQQKFAFYEKSLPNKKRSFFEMKYYNDVTTPKIYRLTDQEMKLFDKLEA | not soluble |
